# From patent US20250197451A1 (CAPITAL MEDICAL UNIVERSITY SCHOOL OF STOMATOLOGY, published 2025)
# Biological target: T1, biotin-labelled EZH2 protein (UniProt Q15910 1-746, limits assumed, biotin label (EZ-link NHS-PEO4-Biotinylation kit))
# T1 construct: Probe in solution (1 ug/ml) on the KDM2B peptide microarray; also called NHS-PEO4-Biotinylation-labelled EZH2 protein; recombinant protein
# Experiment: KDM2B peptide array probed with biotin-EZH2 1 ug/ml, SA-HRP/ECL;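 for Intensity (%): Background-corrected optical density of each spot on the membrane, given as percent of the brightest spot (100%), color developed for 5 minutes; 100% is the highest background-corrected spot optical density on the membrane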
# Experimental: (§1) After blocking, the polypeptide microarray was incubated with biotin-labeled target protein for hybridization, visualized with the chemical chromogenic substrate and imaged using a Chempchemi digital imager. The image of colored polypeptide microarray was analyzed for the optical density of the colored points. Particularly, the optical density of each colored point was calculated using the optical density of the respective surrounding background as a reference for background correction. The highest optical density value of the colored point on membrane was set to 100%, and the optical density value of the remaining colored points was converted into percentages relative to the highest value. The points with an optical density percentage of more than 30% on the polypeptide membrane and also with an optical density percentage of less than 30% on the negative membrane were defined as positive colored points.
# (§2) For the hybridization experiment, a solution of NHS-PEO4-Biotinylation-labelled EZH2 protein (1 μg/ml) was used for the hybridization of the polypeptide microarray. Streptavidin-HRP was used to amplify the reaction signal according to the experimental procedure and conditions described above, and the time of color development was 5 minutes.
# T1 sequence (Q15910 whole entry): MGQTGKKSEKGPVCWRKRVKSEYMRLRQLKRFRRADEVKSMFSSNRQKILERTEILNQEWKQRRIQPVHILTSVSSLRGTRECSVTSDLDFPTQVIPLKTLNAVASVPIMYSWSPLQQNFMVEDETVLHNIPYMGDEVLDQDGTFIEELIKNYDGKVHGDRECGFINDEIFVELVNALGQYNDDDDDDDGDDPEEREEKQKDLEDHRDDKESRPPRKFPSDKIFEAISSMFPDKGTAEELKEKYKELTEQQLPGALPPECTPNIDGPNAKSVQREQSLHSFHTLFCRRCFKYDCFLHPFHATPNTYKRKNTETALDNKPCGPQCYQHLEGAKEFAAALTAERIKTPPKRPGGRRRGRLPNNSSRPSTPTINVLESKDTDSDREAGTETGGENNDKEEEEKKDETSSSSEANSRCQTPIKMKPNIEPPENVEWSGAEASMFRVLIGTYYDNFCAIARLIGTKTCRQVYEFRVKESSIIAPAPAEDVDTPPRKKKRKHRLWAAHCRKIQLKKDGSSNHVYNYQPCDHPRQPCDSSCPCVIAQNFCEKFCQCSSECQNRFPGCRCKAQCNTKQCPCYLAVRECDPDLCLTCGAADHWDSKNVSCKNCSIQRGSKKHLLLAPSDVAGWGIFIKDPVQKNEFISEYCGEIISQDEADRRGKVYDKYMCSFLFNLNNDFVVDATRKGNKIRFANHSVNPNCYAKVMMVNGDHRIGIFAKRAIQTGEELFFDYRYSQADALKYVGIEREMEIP
row,Binder,binding result
1,EEEACDQQPQEEEEK [peptide 83],no binding
2,DQQPQEEEEKDEEGE [peptide 84],no binding

# Biological target: T1, biotin-labelled EZH2 protein
# Experiment: as above
# Remark: another data set of the same source
row,Binder,Intensity (%)
1,EEEACDQQPQEEEEK [peptide 83],0%
2,DQQPQEEEEKDEEGE [peptide 84],0%

# Biological target: T1, biotin-labelled EZH2 protein
# Experiment: KDM2B peptide array probed with biotin-EZH2 1 ug/ml, SA-HRP/ECL; Remark: spike
# Experimental: as §1, §2
row,Binder,Intensity (%)
1,SNLPGSLLKEQKMNR [peptide 149],0%
2,SLLKEQKMNRDNKEG [peptide 150],0%
3,DSLVFGGNILHSFNV [peptide 65],0%
4,DDVHLRKKRKYEKPQ [peptide 160],0%
5,EDTVEEEEGKFNLML [peptide 135],0%
6,VYTPVDSLVFGGNIL [peptide 64],0%
7,RRSECEEAPRRRSDE [peptide 154],0%

# Biological target: T1, biotin-labelled EZH2 protein
# Experiment: KDM2B peptide array probed with biotin-EZH2 1 ug/ml, SA-HRP/ECL; Remark: noise
# Experimental: as §1, §2
row,Binder,Intensity (%)
1,DRTRVQPKFRYPFYY [peptide 70],0.02%
2,ESEESVKSTTLAVDY [peptide 96],0%
3,VTKEGCEQFIAEMSV [peptide 262],0%
4,NRPGQMDNRSKLRNI [peptide 241],0%
5,PTSTPSEDQEALGKK [peptide 90],0.19%
6,ETPEAQRDKLYNVIS [peptide 33],0%
7,CEQFIAEMSVSVQFG [peptide 263],0.05%
8,EMCWYVLERYVYCVT [peptide 73],0.19%
9,ALGKKPKAPALRFLK [peptide 92],0%
10,TQEYQRESMLIDAPR [peptide 77],0%
11,GGTSVWYHVFRGGKI [peptide 50],0%
12,DGSTSPTSTPSEDQE [peptide 89],0%
13,TWNRWCCDKRLWTRI [peptide 219],0.56%
14,KSITPLMLSGIIRRQ [peptide 223],0%
15,SEDQEALGKKPKAPA [peptide 91],0%
16,FVRYYETPEAQRDKL [peptide 32],0%
17,LSFFKRCGNICHIDL [peptide 258],0.72%
18,ISKKQLSWLINRLPG [peptide 228],0%
19,TDASLRLIIRHMPLL [peptide 246],0%
20,NAIAEMKYPKVKKYC [peptide 44],0%
21,VQFGQVEEKLLQKLS [peptide 266],0%
22,VTDQCLSFFKRCGNI [peptide 257],0.23%
23,LSWTNISKKQLSWLI [peptide 227],0%
24,PKTPTGSPATEVSAK [peptide 99],0%
25,LSWLINRLPGLRDLV [peptide 229],0%
26,PTLHNLALYEEWVLS [peptide 54],0%
27,EFESATQRPIDRQRY [peptide 8],0%
28,IIRRQPVSLDLSWTN [peptide 225],0%
